Results: PMC9122904, “Insights into the client protein release mechanism of the ATP-independent chaperone Spy” (Nature Communications, 2022)

Columns and labels:
Test in all cases: BLI; Octet RED96; client biotinylated and loaded on streptavidin sensors; Spy or Spy variant in solution at 0.25, 0.5, 1, 1.5 and 2 μM; 40 mM HEPES, 150 mM NaCl, pH 7.5; Kd calculated as koff/kon
Settings in all cases: both partners purified
Spy_(29-124) K121D R122D = target: T1, Spy_(29-124) K121D R122D (UniProt P77754 52-147, K121D | R122D)
T1 construct: source: E. coli BL21 (DE3), purified (Ni-NTA, cation exchange, SEC); not shown: His6, N-terminal, cleaved; SUMO, N-terminal, cleaved
T1 sequence (looked up): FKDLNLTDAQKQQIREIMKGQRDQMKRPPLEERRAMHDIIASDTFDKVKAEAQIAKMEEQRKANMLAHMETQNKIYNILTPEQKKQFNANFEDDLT

Spy_(29-124) H96D [1] = target: T2, Spy_(29-124) H96D (UniProt P77754 52-147, H96D)
T2 construct: source: E. coli BL21 (DE3), purified (Ni-NTA, cation exchange, SEC); not shown: His6, N-terminal, cleaved; SUMO, N-terminal, cleaved
T2 sequence (looked up): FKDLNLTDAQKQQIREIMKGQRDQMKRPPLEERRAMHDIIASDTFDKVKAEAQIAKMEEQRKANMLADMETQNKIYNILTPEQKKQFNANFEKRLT

Spy_(29-124) R43D = target: T3, Spy_(29-124) R43D (UniProt P77754 52-147, R43D)
T3 construct: source: E. coli BL21 (DE3), purified (Ni-NTA, cation exchange, SEC); not shown: His6, N-terminal, cleaved; SUMO, N-terminal, cleaved
T3 sequence (looked up): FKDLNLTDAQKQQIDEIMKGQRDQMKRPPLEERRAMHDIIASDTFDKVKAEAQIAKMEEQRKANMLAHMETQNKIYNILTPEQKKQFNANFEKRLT

Spy_(29-124) K54D R55D [2] = target: T4, Spy_(29-124) K54D R55D (UniProt P77754 52-147, K54D | R55D)
T4 construct: source: E. coli BL21 (DE3), purified (Ni-NTA, cation exchange, SEC); not shown: His6, N-terminal, cleaved; SUMO, N-terminal, cleaved
T4 sequence (looked up): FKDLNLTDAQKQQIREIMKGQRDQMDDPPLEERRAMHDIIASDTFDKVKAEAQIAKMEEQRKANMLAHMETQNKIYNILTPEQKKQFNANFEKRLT

Spy_(29-124) R89D = target: T5, Spy_(29-124) R89D (UniProt P77754 52-147, R89D)
T5 construct: source: E. coli BL21 (DE3), purified (Ni-NTA, cation exchange, SEC); not shown: His6, N-terminal, cleaved; SUMO, N-terminal, cleaved
T5 sequence (looked up): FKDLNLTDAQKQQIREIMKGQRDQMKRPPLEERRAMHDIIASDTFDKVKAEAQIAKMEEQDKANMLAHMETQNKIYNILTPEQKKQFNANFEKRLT

Spy_(29-124) K75D = target: T6, Spy_(29-124) K75D (UniProt P77754 52-147, K75D)
T6 construct: source: E. coli BL21 (DE3), purified (Ni-NTA, cation exchange, SEC); not shown: His6, N-terminal, cleaved; SUMO, N-terminal, cleaved
T6 sequence (looked up): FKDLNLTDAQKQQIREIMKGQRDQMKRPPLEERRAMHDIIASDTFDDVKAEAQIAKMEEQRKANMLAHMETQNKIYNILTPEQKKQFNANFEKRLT

Spy_(29-124) R50D = target: T7, Spy_(29-124) R50D (UniProt P77754 52-147, R50D)
T7 construct: source: E. coli BL21 (DE3), purified (Ni-NTA, cation exchange, SEC); not shown: His6, N-terminal, cleaved; SUMO, N-terminal, cleaved
T7 sequence (looked up): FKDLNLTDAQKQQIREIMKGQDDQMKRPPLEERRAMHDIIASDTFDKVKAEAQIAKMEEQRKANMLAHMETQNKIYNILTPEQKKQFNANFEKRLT

Spy_(29-124) R61D R62D [3] = target: T8, Spy_(29-124) R61D R62D (UniProt P77754 52-147, R61D | R62D)
T8 construct: source: E. coli BL21 (DE3), purified (Ni-NTA, cation exchange, SEC); not shown: His6, N-terminal, cleaved; SUMO, N-terminal, cleaved
T8 sequence (looked up): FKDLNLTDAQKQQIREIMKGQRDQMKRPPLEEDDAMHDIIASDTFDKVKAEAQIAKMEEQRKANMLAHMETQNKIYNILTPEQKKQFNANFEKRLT

Spy_(29-124) H96D [4] = target: T2, Spy_(29-124) H96D; remark: listed apart in the source
Spy_(29-124) K54D R55D [5] = target: T4, Spy_(29-124) K54D R55D; remark: listed apart in the source
Spy_(29-124) R61D R62D [6] = target: T8, Spy_(29-124) R61D R62D; remark: listed apart in the source

B1: Im7 H40W L53A I54A (natural protein)
chain: MELKNSISDYTEAEFVQLLKEIEKENVAATDDVLDVLLEWFVKITEHPDGTDAAYYPSDNRDDSPEGIVKEIKEWRAANGKPGFKQG
modifications: biotin (EZ-link NHS-biotin, 1:1 molar ratio of biotin to protein)
notes: Im7 (colicin E7 immunity protein) with H40W L53A I54A; Spy was made with an N-terminal His6-SUMO tag that was cleaved; also called Im7AAW; partially folded client; source: purified by a similar procedure to Spy
In the case of B1, the Kd (Spy_(29-124) K121D R122D) is reported as 1850 nM, the Kd (Spy_(29-124) H96D [1]) is reported as 1260 nM and the Kd (Spy_(29-124) R43D) is reported as 3.07 µM. For the same binder, the Kd (Spy_(29-124) K54D R55D [2]) was 1900 nM, the Kd (Spy_(29-124) R89D) was 2610 nM and the Kd (Spy_(29-124) K75D) was 456 nM. For the same binder, the Kd (Spy_(29-124) R50D) was 2680 nM, the Kd (Spy_(29-124) R61D R62D [3]) was 3.54 µM and the kon (Spy_(29-124) H96D [4]) was 185000 M⁻¹ s⁻¹. For the same binder, the kon (Spy_(29-124) K54D R55D [5]) was 126000 M⁻¹ s⁻¹ and the kon (Spy_(29-124) R61D R62D [6]) was 74000 M⁻¹ s⁻¹.
